Results on three compounds are retold here after PMC9504514, “Identification of a Potential Inhibitor (MCULE-8777613195-0-12) of New Delhi Metallo-β-Lactamase-1 (NDM-1) Using In Silico and In Vitro Approaches” (Molecules, 2022).

In data set [1] the target is T1, New Delhi metallo-β-lactamase-1 (NDM-1) (Klebsiella pneumoniae, UniProt C7C422).
T1 construct: gene blaNDM-1
The data set is described as follows: biochemical.

For data set [2], the system named is CC1(C)S[C@@H]2[C@H](NC(=O)[C@H](N)c3ccccc3)C(=O)N2[C@H]1C(=O)O. The experiment in a line: steady-state hydrolysis kinetics (Km) with purified NDM-1. It counts as biochemical, Klebsiella pneumoniae. The conditions noted are these: Zn2+ (two zinc ions).
In data set [3] the test system is CO/N=C(\C(=O)N[C@@H]1C(=O)N2C(C(=O)O)=C(COC(C)=O)CS[C@H]12)c1csc(N)n1. The description is as above. The conditions noted are these: Zn2+ (two zinc ions). It counts as biochemical, Klebsiella pneumoniae.
Data set [4] concerns C[C@@H](O)[C@H]1C(=O)N2C(C(=O)O)=C(SCCN=CN)C[C@H]12. The description is as above. It counts as biochemical, Klebsiella pneumoniae. The conditions noted are these: Zn2+ (two zinc ions).
The test system of data set [5] is C[C@@H](O)[C@H]1C(=O)N2C(C(=O)O)=C(S[C@@H]3CN[C@H](C(=O)N(C)C)C3)[C@H](C)[C@H]12. The description is as above. It counts as biochemical, Klebsiella pneumoniae. The conditions noted are these: Zn2+ (two zinc ions) substrate binding site (docking).
The target of data set [6] is T1, New Delhi metallo-β-lactamase-1 (NDM-1). The description is as above. The class given is biochemical.

T1 sequence (C7C422 29-270 limits assumed): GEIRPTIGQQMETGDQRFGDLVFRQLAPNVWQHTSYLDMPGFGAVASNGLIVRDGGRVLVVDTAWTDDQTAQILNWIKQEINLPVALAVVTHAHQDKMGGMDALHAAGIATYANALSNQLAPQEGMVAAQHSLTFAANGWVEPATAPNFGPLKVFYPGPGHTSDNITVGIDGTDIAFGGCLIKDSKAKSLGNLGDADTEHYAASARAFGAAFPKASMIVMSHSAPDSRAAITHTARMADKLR

In the case of `N#CC1=Cc2ccccc2[C@@H]2NN3C(C#N)=Cc4ccccc4[C@@H]3NN12` [MCULE-8777613195-0-12, [3R,14R]-1,2,12,13-tetrazapentacyclo [12.8.0.03,12.04,9.015,20]docosa-4,6,8,10,15,17,19,21-octaene-11,22-dicarbonitrile], the midpoint of inhibition in data set [1], the IC50, lay at 54.2 ± 6.3 µM.
With “New Delhi metallo-β-lactamase-1 (NDM-1) (Klebsiella pneumoniae)”, the Km – broadly, the substrate concentration at which the rate is half of its maximum – in data set [2] came out at 99.4 ± 7.6 µM; in data set [3], 61.6 ± 5.8 µM; in data set [4] it was 83.9 ± 6.7 µM; in data set [5] it was 58.3 ± 5.2 µM. Further, the kcat – broadly, the maximal rate divided by the concentration of active sites – in data set [2] amounted to 392 ± 25.7 s⁻¹; in data set [3] it was 413 ± 28.1 s⁻¹; in data set [4] it was 700 ± 18.7 s⁻¹; in data set [5], 301 ± 11.9 s⁻¹. For the same compound, the kcat/Km (commonly the turnover number divided by the Michaelis constant) in data set [2] stood at 3.94e+06 ± 140000 M⁻¹ s⁻¹; in data set [3] it was 6.7e+06 ± 270000 M⁻¹ s⁻¹; in data set [4], 8.34e+06 ± 640000 M⁻¹ s⁻¹; in data set [5], 5.17e+06 ± 330000 M⁻¹ s⁻¹.
As to `O=C(Cc1cccs1)N[C@@H]1C(=O)N2C(C(=O)O)=C(/C=C/c3ccc([N+](=O)[O-])cc3[N+](=O)[O-])CS[C@H]12` [nitrocefin], the Km in data set [6] came out at 27.1 ± 2.1 µM.
